Laboratory results reported in patent US20240239881A1 (Innovent, published 2024).

Experiments:
Rat ANG2 = target: T1, Rat ANG2 (rat, UniProt O35462 19-496, limits assumed); test: SPR, Biacore T200, antibody captured on Protein G chip
T1 sequence (looked up): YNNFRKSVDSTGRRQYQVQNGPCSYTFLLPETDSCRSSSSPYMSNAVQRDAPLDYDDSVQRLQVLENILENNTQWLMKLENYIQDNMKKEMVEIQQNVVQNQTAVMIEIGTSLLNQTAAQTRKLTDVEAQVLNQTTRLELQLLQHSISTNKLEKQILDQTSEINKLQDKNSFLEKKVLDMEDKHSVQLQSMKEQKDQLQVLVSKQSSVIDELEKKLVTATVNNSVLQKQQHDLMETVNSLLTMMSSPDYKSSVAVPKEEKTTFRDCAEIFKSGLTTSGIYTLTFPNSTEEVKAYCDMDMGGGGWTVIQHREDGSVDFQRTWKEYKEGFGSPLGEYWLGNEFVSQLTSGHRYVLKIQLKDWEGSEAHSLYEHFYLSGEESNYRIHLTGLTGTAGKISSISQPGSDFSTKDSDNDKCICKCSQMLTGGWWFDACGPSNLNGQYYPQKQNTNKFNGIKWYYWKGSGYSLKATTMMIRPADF
Procedure: (§1) The antibody was diluted to 1 μg/mL and was captured onto channel 2 for 30 s, and channel 1 was the blank control channel. The gradient-diluted Human ANG2, Rhesus ANG2, Rabbit ANG2, Rat ANG2 and Mouse ANG2 were sequentially injected into channels 1 and 2 of the chip, from low to high concentrations (0-32 nM), at a flow rate of 30 μL/min, with one concentration per cycle, and with 180 s association time and 1200 s dissociation time at 25° C. Finally, the chip was regenerated using Glycine pH 1.5 at 30 μL/min for 30 s. The affinity assay was repeated three times.

Mouse ANG2 = target: T2, Mouse ANG2 (mouse, UniProt O35608 19-496, limits assumed); test: as above
T2 sequence (looked up): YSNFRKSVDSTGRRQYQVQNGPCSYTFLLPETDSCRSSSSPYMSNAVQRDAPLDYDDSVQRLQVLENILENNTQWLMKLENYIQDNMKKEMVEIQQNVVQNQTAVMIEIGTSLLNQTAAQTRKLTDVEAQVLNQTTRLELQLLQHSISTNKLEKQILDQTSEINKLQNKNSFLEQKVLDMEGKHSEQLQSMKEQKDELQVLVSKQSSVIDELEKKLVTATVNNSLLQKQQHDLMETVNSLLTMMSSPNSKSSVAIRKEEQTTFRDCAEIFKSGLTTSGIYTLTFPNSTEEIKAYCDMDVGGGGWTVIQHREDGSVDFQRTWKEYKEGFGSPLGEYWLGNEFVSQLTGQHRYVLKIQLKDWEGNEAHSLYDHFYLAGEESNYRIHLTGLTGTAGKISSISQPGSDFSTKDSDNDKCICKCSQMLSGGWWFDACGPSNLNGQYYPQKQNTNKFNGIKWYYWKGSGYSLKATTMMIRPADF
Procedure: as §1

human Ang2 [1] = target: T3, human Ang2 (human, UniProt O15123 19-496, limits assumed); test: ForteBio BLI, antibody on AHQ sensor, 100 nM antigen, 1:1 model
T3 construct: also called hAng2; h Ang2
T3 sequence: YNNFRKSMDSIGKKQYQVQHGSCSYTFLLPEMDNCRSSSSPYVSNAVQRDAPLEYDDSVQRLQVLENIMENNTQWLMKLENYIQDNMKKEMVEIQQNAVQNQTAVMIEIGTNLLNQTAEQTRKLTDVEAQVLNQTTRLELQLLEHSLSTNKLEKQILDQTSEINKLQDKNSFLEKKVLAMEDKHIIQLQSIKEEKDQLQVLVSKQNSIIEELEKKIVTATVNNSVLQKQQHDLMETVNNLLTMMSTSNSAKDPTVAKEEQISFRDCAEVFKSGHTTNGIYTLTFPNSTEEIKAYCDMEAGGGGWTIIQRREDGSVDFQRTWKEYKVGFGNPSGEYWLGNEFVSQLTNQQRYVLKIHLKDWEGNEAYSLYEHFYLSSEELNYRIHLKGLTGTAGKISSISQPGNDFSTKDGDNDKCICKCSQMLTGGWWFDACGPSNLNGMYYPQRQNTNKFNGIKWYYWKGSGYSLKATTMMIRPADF
Procedure: The equilibrium dissociation constants (KD) of the above exemplary antibodies of the present invention binding to human Ang2 (h Ang2), cynomolgus monkey Ang2 (cAng2), murine Ang2 (mAng2), and human Ang1 (hAng1) were determined using the biological optical interferometry (ForteBio) assay.
The ForteBio affinity assay was performed according to the existing method (Estep, P et al., High throughput solution-based measurement of antibody-antigen affinity and epitope binning. MAbs, 2013.5 (2): p. 270-8). Briefly, the sensor was equilibrated in the assay buffer off-line for 30 min, followed by on-line detection for 60 s to establish the baseline. Then the purified antibodies obtained as described above were loaded on-line onto an AHQ sensor (ForteBio) for ForteBio affinity assay. The sensors with loaded antibodies were exposed to 100 nM of hAng2, cAng2, mAng2, and hAng1 antigens for 5 min, and then were transferred into the assay buffer for dissociation for 5 min to determine the dissociation rate. Kinetic analysis was performed using a 1:1 binding model.

Rhesus ANG2 = target: T4, Rhesus ANG2 (rhesus, UniProt F6QXG0 19-496); test: SPR, Biacore T200, antibody captured on Protein G chip, experiment 2
T4 sequence: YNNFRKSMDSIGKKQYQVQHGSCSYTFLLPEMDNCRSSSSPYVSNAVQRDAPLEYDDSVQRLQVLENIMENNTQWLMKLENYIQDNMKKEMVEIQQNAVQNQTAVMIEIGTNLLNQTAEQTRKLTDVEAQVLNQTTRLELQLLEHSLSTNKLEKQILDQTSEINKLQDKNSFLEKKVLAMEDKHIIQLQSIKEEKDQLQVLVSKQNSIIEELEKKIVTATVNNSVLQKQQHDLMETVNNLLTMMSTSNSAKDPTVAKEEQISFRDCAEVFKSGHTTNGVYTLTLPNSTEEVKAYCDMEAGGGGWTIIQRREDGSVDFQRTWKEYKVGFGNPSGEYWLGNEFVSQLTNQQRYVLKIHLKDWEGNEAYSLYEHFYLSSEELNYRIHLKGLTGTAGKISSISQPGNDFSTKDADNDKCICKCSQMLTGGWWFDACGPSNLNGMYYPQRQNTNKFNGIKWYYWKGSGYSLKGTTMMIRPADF
Procedure: as §1

human Ang2 [2] = target: T3, human Ang2; test: as above
Procedure: as §1

B1: humanized antibody hz81H10.4 (antibody, human IgG1, kappa, V domains shown)
VH: EVQLVESGGGLVKPGGSLRLSCAASGFTFSNYWMNWVRQAPGKGLEWVAEIRLKSNNYATHYAESVKGRFTISRDVSKNTVYLQMNSLKTEDTAVYYCTDTAPFAYWGQGTLVTVSS
VL: DIQMTQSPSSLSASVGDRVTITCKASQDVGTDVAWYQQKPGKAPKLLIYWASTRHTGVPSRFSGSGSGTDFTLTISSLQPEDFATYYCQQYSSYPLTFGGGTKVEIKR
notes: also called IBI335
B1 was tested, and the binding result (Rat ANG2) was “no binding (tested: 0-32 nM)”, the binding result (Mouse ANG2) was “no binding (tested: 0-32 nM)” and the Kd (human Ang2 [1]) was 1.25 nM. It also gave a Kd (Rhesus ANG2) of 0.126 nM, a koff (Rhesus ANG2) of 3.67e-05 s⁻¹ and a kon (Rhesus ANG2) of 291000 M⁻¹ s⁻¹. The Kd (human Ang2 [2]) was 0.0319 nM, the koff (human Ang2 [2]) was 8.25e-06 s⁻¹ and the kon (human Ang2 [2]) was 259000 M⁻¹ s⁻¹.
